What was measured:
[1] = target: the molecule itself; experiment: FRET or BRET; COS-7 cells stably expressing GnT1IP-L-mVen, co-transfected with GnT1IP-L-mChe and MGAT1-HA as competitor, with or without 40 µM chloroquine for 4 or 16 hr; FRET efficiency by acceptor bleaching
[2] = target: the molecule itself; experiment: FRET or BRET; acceptor-bleaching FRET microscopy on fixed cells, mVen donor and mChe acceptor; COS-7 cells stably expressing GnT1IP-L-mVen, transiently transfected with the mChe-tagged partner; untreated controls, recovery 4 hr after removal of nocodazole, and 40 µM chloroquine for 4 or 16 hr
[3] = target: T1, human MGAT1-mChe (human, UniProt P26572 1-445); experiment: as above; conditions: partners not purified
T1 construct: N-acetylglucosaminyltransferase MGAT1, human, full-length cDNA clone; also called GlcNAc-TI; GnT-1; source: COS-7 or Lec1 CHO cells, transiently transfected; in cells; not shown: monomeric mCherry (mChe), C-terminal, kept
T1 sequence (looked up): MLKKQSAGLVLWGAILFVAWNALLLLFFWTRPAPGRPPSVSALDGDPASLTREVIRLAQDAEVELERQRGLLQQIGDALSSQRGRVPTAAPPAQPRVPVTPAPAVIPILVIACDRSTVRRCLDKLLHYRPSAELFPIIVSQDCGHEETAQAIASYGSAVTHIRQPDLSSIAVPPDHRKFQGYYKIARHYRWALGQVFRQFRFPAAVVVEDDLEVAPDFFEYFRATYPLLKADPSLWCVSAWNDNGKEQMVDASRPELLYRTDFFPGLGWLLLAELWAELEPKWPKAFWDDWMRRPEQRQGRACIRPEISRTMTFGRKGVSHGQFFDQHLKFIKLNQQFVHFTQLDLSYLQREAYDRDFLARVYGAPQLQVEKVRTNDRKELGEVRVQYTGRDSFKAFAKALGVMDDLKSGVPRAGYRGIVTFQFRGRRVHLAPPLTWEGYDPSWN

- FRET efficiency (untreated control) [3]: 38%
B1: Mouse GnT1IP-L-mVen (natural protein, UniProt Q9D4R2-2 1-417, looked up)
chain: MCLGESVGDLRTVATAPWEGEQARGVKDAGSVPVQPGVGSDAATMKAKNVNLLFAFVAVLLFGFSCFCISRMNQTNNQLINCRNHVLEFKEIMLRLKNKSENHHQDLMQVLYQMKRKAAHTTRSSGNFLEKKGSILSQHETLPNQFEVLKYFLPHLRTAGKLYPAIATSKGRAGVSFALGISTINRGNHTYLKQTLTSVLSRMTPEEEEDSVVIVSVADTDESYLKSVVRMVKTKFRKQVQSGVLEVISIPTLFYPQTLLDKKTKTDSESWQIKQVLDFCILMLYAQPKATYYLQLEDDIVAKKMYFTKMKDFVNSLTSKNWFFIEFSVLGFIGKLFRSKDLTDFVHFFLMFYETKPIDILLDDIFLIRVCISGEPVRSCLQRKKGFRIQYRPSLFQHVGTQSSFPGREQHLKDNYY
notes: GnT1IP-L, mouse, the long form of 417 aa (GnT1IP-S with 44 additional N-terminal amino acids), GenBank HM067443; In the homomer FRET experiments the second copy carried C-terminal monomeric mCherry (GnT1IP-L-mChe) instead of mVen; it is written as the same molecule; also called MGAT4D (long form); source: COS-7 or Lec1 CHO cells stably expressing it, or COS-7 cells transiently transfected; in …
- fold increase of homomer FRET with chloroquine, MGAT1-HA co-expressed as competitor [1]: ~2 fold
- FRET efficiency (untreated control) [2]: 32%
